Experimental data: PMC6917787, “Structural basis of nucleosome assembly by the Abo1 AAA+ ATPase histone chaperone” (Nature Communications, 2019)

Legend:
[1] = test system: Histone H3-H4, Cy5-labelled ((only implied by the reviewer comments)); test: single-molecule DNA curtain; details: DNA curtain: 5 nM Abo1 and 12.5 nM Cy5-H3-H4 pre-incubated on ice 15 min with 1 mM nucleotide, then 15 min with DNA without flow, YOYO-1 washed out in assay …
[2] = biological target: the molecule itself; test: SEC; Superose6 gel filtration of purified Abo1 in buffer with 2 mM EDTA, 2 mM MgCl2 or 2 mM MgATP
[3] = biological target: Cy3-labeled histone H3–H4 (X. laevis) (UniProt P84233); test: fluorescence polarisation; fluorescence anisotropy; 0–1 μM Abo1 added to 20 nM Cy3-labeled H3–H4; 30 mM HEPES pH 7.5, 200 mM NaCl, 1 % glycerol, 2 mM MgCl2, 0.01 % NP-40; room temperature; affinity not significantly changed with nucleotide
[4] = biological target: the molecule itself; test: cryo-EM structure; Abo1 in 20 mM HEPES pH7.5, 250 mM NaCl, 1 mM DTT, 0.025 % octyl β-D-glucoside with 2 mM MgCl2 (apo), 2 mM MgADP or 2 mM MgATP (Walker B mutant)

lambda phage DNA (single-tethered DNA curtain)
binding signal (% DNA with bound H3-H4) [1]: 5.24
binding signal (% DNA with bound H3-H4) ([1]; loading by wild-type Abo1 (5 nM), 1 mM ATP): 85
binding signal (% DNA with bound H3-H4) ([1]; wild-type Abo1, no ATP): < 10

B1: Abo1 (aa243–1190), wild type (enzyme, Schizosaccharomyces pombe, UniProt O14114 243-1190, looked up)
chain: GRIREKSDLADSDPLGVDSSLSFESVGGLDNYINQLKEMVMLPLLYPEIFQRFNMQPPRGVLFHGPPGTGKTLMARALAAACSSENKKVSFYMRKGADCLSKWVGEAERQLRLLFEEAKSTQPSIIFFDEIDGLAPVRSSKQEQIHASIVSTLLALMDGMESRGQVIIIGATNRPDAVDPALRRPGRFDREFYFPLPDRDARKKIIEIHTRNWDPPVPEWLCSMLAEKSKGYGGADLRALCTEAALNSIKRTYPQLYRSTKRLQIDPKTIKVKVKDFVMSMKRMIPSSERSSISPSKPLSPELKPLLNEAFQDIEKTLQKLMPVASKLNPLEEVMYDDPKENDFEYQQRLETFETLRIYKPRFLICGRKGLGQTALGPAILQQYEGVHVQSFDMSTLLQDSTQSIETSIIHLFLEVRRHTPSIIYIPDIDNWLNVLPLTAITTFSSMLERLDFSDQILFLALSSSPLSELHPQLREWFSSKQSVYSLQYPTRDSIIAFFQPILELIKASPTELPGGIPRKRRVLPELPLAPDPPPFTSQKITLKQTKQADMRLLNKLKIKLNALLGSLRARYRKFKKPLIDFNDIYCVDPETGHSYRSREECHYEFVDDVVKQIGSDQKFSMMSLEEIEKRTWDNCYCTPKQFVHDIKLILRDALQLEDSETIKRAQEMYANVLLGVEDMEDDQFSQRCERMALREAERRKLRHGKLQKHLDETKADMQFTSEKPSVDESITEVDDAIKDGPPVLAETLTNSLMEDVGPENVDMDIEDNEIFTNQSTMSVPSMLVENEESPKPDEYIDQKDKVQSPLLNGKSPVGVPSEAALRVSTDVSTNISSNGRADIPVDTLITSPADVPNNAPTDAHNITSADGHIENIEQEVVFPDLVFDEDRLTPLKQLLIDSTTGFTVDQLLHLHSFLYQIIWNTKSEWNRNSVVDECERAVKEFMINALQ
notes: Abo1, Schizosaccharomyces pombe ATAD2 homolog, aa243–1190 (acidic N-terminus truncated; two AAA+ domains, bromodomain and C-terminal domain); Gene synthesized (Genscript), pFastBac-HTB; also called recombinant Abo1; wild-type Abo1; source: Sf9 (baculovirus), purified (Ni-NTA, TEV cleavage, HiTrapQ); not shown: 6xHis, N-terminal, cleaved
stoichiometry N [2]: 6
Kd [3]: 23 nM

B2: Abo1 Walker B mutant (E372Q), aa243–1190 (enzyme, Schizosaccharomyces pombe, UniProt O14114 243-1190, looked up)
chain: GRIREKSDLADSDPLGVDSSLSFESVGGLDNYINQLKEMVMLPLLYPEIFQRFNMQPPRGVLFHGPPGTGKTLMARALAAACSSENKKVSFYMRKGADCLSKWVGEAERQLRLLFEEAKSTQPSIIFFDQIDGLAPVRSSKQEQIHASIVSTLLALMDGMESRGQVIIIGATNRPDAVDPALRRPGRFDREFYFPLPDRDARKKIIEIHTRNWDPPVPEWLCSMLAEKSKGYGGADLRALCTEAALNSIKRTYPQLYRSTKRLQIDPKTIKVKVKDFVMSMKRMIPSSERSSISPSKPLSPELKPLLNEAFQDIEKTLQKLMPVASKLNPLEEVMYDDPKENDFEYQQRLETFETLRIYKPRFLICGRKGLGQTALGPAILQQYEGVHVQSFDMSTLLQDSTQSIETSIIHLFLEVRRHTPSIIYIPDIDNWLNVLPLTAITTFSSMLERLDFSDQILFLALSSSPLSELHPQLREWFSSKQSVYSLQYPTRDSIIAFFQPILELIKASPTELPGGIPRKRRVLPELPLAPDPPPFTSQKITLKQTKQADMRLLNKLKIKLNALLGSLRARYRKFKKPLIDFNDIYCVDPETGHSYRSREECHYEFVDDVVKQIGSDQKFSMMSLEEIEKRTWDNCYCTPKQFVHDIKLILRDALQLEDSETIKRAQEMYANVLLGVEDMEDDQFSQRCERMALREAERRKLRHGKLQKHLDETKADMQFTSEKPSVDESITEVDDAIKDGPPVLAETLTNSLMEDVGPENVDMDIEDNEIFTNQSTMSVPSMLVENEESPKPDEYIDQKDKVQSPLLNGKSPVGVPSEAALRVSTDVSTNISSNGRADIPVDTLITSPADVPNNAPTDAHNITSADGHIENIEQEVVFPDLVFDEDRLTPLKQLLIDSTTGFTVDQLLHLHSFLYQIIWNTKSEWNRNSVVDECERAVKEFMINALQ
notes: Abo1, Schizosaccharomyces pombe, aa243–1190, Walker B mutation E372Q; also called ATP-Abo1 Walker B mutant; ATP-Abo1; source: Sf9 (baculovirus), purified (Ni-NTA, TEV cleavage, HiTrapQ); not shown: 6xHis, N-terminal, cleaved
binding result [4]: binds
